Consider 2 substances from patent US20160274109A1.

The target in the assay is Rap1B (Rap1B portion of the EPAC2-GFP-RAP1B sensor) (Homo sapiens (Human)) (UniProt P61224). The assay can be described thus: cell-based or functional assay.
Sequence of Rap1B (Rap1B portion of the EPAC2-GFP-RAP1B sensor) (Homo sapiens (Human)) (P61224 other isoform, or with tags, fused parts or gaps limits assumed): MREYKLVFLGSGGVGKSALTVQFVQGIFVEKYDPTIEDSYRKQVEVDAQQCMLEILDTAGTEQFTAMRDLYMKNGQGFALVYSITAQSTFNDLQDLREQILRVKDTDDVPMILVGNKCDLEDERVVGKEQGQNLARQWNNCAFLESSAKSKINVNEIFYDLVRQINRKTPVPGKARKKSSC

In turn, “Epac2 (Epac2 portion of the EPAC2-GFP-RAP1B sensor) (from UniProt Q8WZA2 1-1011)” gave a Relative Change in Fluorescence in Response to Isoproternol (EPAC2gfpRAP1B sensor) of 26%.

For “Epac2 (Epac2 portion of the EPAC2-GFP-RAP1B sensor) (from UniProt Q8WZA2 1-1011) (enzyme)”, the change in fluorescence of the tethered Epac2-cpEGFP-Rap1B sensor in response to drug (isoproterenol), HEK 293 cells is 25%.
